Data reported in patent US20110118447A1.

How the values were obtained:
[1] = molecular target: binding partner of C5A (XPA23); assay: Biacore
[2] = molecular target: binding partner (antigen) of C5A (XPA23); assay: Biacore, K-off, fold vs original

Binder | fold affinity vs original [1] | fold difference in affinity vs original [2] | fold difference in affinity vs original [1]
C5A (XPA23) VH G100W (antibody, V domains shown) VH: EVQLLESGGGLVQPGGSLRLSCAASGFTFSKYFMFWVRQAPGKGLEWVSVISPSGGMTRYADSVKGRFTISRDNSKNTLYLQMNSLRAEDTAVYYCARVWYGGNSDYWGQGTLVTVSS VL: DIQMTQSPSSVSASVGDRLTIICRASQDINRWLAWYQQTPGNAPKLLIHSATSLQSGVPSRFSGSGSGTDFTLTINSLQPEDFATYYCQQADSFPLTFGGGTKVEIK | 0.05 fold | 0.05 fold | 
C5A (XPA23) VH Y101W (antibody, V domains shown) VH: EVQLLESGGGLVQPGGSLRLSCAASGFTFSKYFMFWVRQAPGKGLEWVSVISPSGGMTRYADSVKGRFTISRDNSKNTLYLQMNSLRAEDTAVYYCARVGWGGNSDYWGQGTLVTVSS VL: DIQMTQSPSSVSASVGDRLTIICRASQDINRWLAWYQQTPGNAPKLLIHSATSLQSGVPSRFSGSGSGTDFTLTINSLQPEDFATYYCQQADSFPLTFGGGTKVEIK | 0.81 fold | 0.81 fold | 
C5A (XPA23) VH Y101I (antibody, V domains shown) VH: EVQLLESGGGLVQPGGSLRLSCAASGFTFSKYFMFWVRQAPGKGLEWVSVISPSGGMTRYADSVKGRFTISRDNSKNTLYLQMNSLRAEDTAVYYCARVGIGGNSDYWGQGTLVTVSS VL: DIQMTQSPSSVSASVGDRLTIICRASQDINRWLAWYQQTPGNAPKLLIHSATSLQSGVPSRFSGSGSGTDFTLTINSLQPEDFATYYCQQADSFPLTFGGGTKVEIK |  | 0.83 fold | 0.83 fold
C5A (XPA23) VH G103V (antibody, V domains shown) VH: EVQLLESGGGLVQPGGSLRLSCAASGFTFSKYFMFWVRQAPGKGLEWVSVISPSGGMTRYADSVKGRFTISRDNSKNTLYLQMNSLRAEDTAVYYCARVGYGVNSDYWGQGTLVTVSS VL: DIQMTQSPSSVSASVGDRLTIICRASQDINRWLAWYQQTPGNAPKLLIHSATSLQSGVPSRFSGSGSGTDFTLTINSLQPEDFATYYCQQADSFPLTFGGGTKVEIK |  | 2.56 fold | 2.56 fold
C5A (XPA23) VH G103A (antibody, V domains shown) VH: EVQLLESGGGLVQPGGSLRLSCAASGFTFSKYFMFWVRQAPGKGLEWVSVISPSGGMTRYADSVKGRFTISRDNSKNTLYLQMNSLRAEDTAVYYCARVGYGANSDYWGQGTLVTVSS VL: DIQMTQSPSSVSASVGDRLTIICRASQDINRWLAWYQQTPGNAPKLLIHSATSLQSGVPSRFSGSGSGTDFTLTINSLQPEDFATYYCQQADSFPLTFGGGTKVEIK |  | 0.03 fold | 0.03 fold
C5A (XPA23) VH S105V (antibody, V domains shown) VH: EVQLLESGGGLVQPGGSLRLSCAASGFTFSKYFMFWVRQAPGKGLEWVSVISPSGGMTRYADSVKGRFTISRDNSKNTLYLQMNSLRAEDTAVYYCARVGYGGNVDYWGQGTLVTVSS VL: DIQMTQSPSSVSASVGDRLTIICRASQDINRWLAWYQQTPGNAPKLLIHSATSLQSGVPSRFSGSGSGTDFTLTINSLQPEDFATYYCQQADSFPLTFGGGTKVEIK |  | 0.08 fold | 0.08 fold
C5A (XPA23) VH N104L (antibody, V domains shown) VH: EVQLLESGGGLVQPGGSLRLSCAASGFTFSKYFMFWVRQAPGKGLEWVSVISPSGGMTRYADSVKGRFTISRDNSKNTLYLQMNSLRAEDTAVYYCARVGYGGLSDYWGQGTLVTVSS VL: DIQMTQSPSSVSASVGDRLTIICRASQDINRWLAWYQQTPGNAPKLLIHSATSLQSGVPSRFSGSGSGTDFTLTINSLQPEDFATYYCQQADSFPLTFGGGTKVEIK |  | 1.19 fold | 1.19 fold
C5A (XPA23) VH S105F (antibody, V domains shown) VH: EVQLLESGGGLVQPGGSLRLSCAASGFTFSKYFMFWVRQAPGKGLEWVSVISPSGGMTRYADSVKGRFTISRDNSKNTLYLQMNSLRAEDTAVYYCARVGYGGNFDYWGQGTLVTVSS VL: DIQMTQSPSSVSASVGDRLTIICRASQDINRWLAWYQQTPGNAPKLLIHSATSLQSGVPSRFSGSGSGTDFTLTINSLQPEDFATYYCQQADSFPLTFGGGTKVEIK | 1.25 fold | 1.25 fold | 
C5A (XPA23) VH S105A (antibody, V domains shown) VH: EVQLLESGGGLVQPGGSLRLSCAASGFTFSKYFMFWVRQAPGKGLEWVSVISPSGGMTRYADSVKGRFTISRDNSKNTLYLQMNSLRAEDTAVYYCARVGYGGNADYWGQGTLVTVSS VL: DIQMTQSPSSVSASVGDRLTIICRASQDINRWLAWYQQTPGNAPKLLIHSATSLQSGVPSRFSGSGSGTDFTLTINSLQPEDFATYYCQQADSFPLTFGGGTKVEIK |  | 0.84 fold | 0.84 fold
C5A (XPA23) VH S105I (antibody, V domains shown) VH: EVQLLESGGGLVQPGGSLRLSCAASGFTFSKYFMFWVRQAPGKGLEWVSVISPSGGMTRYADSVKGRFTISRDNSKNTLYLQMNSLRAEDTAVYYCARVGYGGNIDYWGQGTLVTVSS VL: DIQMTQSPSSVSASVGDRLTIICRASQDINRWLAWYQQTPGNAPKLLIHSATSLQSGVPSRFSGSGSGTDFTLTINSLQPEDFATYYCQQADSFPLTFGGGTKVEIK |  | 0.07 fold | 0.07 fold
C5A (XPA23) VH Y101P (antibody, V domains shown) VH: EVQLLESGGGLVQPGGSLRLSCAASGFTFSKYFMFWVRQAPGKGLEWVSVISPSGGMTRYADSVKGRFTISRDNSKNTLYLQMNSLRAEDTAVYYCARVGPGGNSDYWGQGTLVTVSS VL: DIQMTQSPSSVSASVGDRLTIICRASQDINRWLAWYQQTPGNAPKLLIHSATSLQSGVPSRFSGSGSGTDFTLTINSLQPEDFATYYCQQADSFPLTFGGGTKVEIK |  | 0.04 fold | 0.04 fold
C5A (XPA23) VH Y101F (antibody, V domains shown) VH: EVQLLESGGGLVQPGGSLRLSCAASGFTFSKYFMFWVRQAPGKGLEWVSVISPSGGMTRYADSVKGRFTISRDNSKNTLYLQMNSLRAEDTAVYYCARVGFGGNSDYWGQGTLVTVSS VL: DIQMTQSPSSVSASVGDRLTIICRASQDINRWLAWYQQTPGNAPKLLIHSATSLQSGVPSRFSGSGSGTDFTLTINSLQPEDFATYYCQQADSFPLTFGGGTKVEIK | 0.85 fold | 0.85 fold | 
C5A (XPA23) VH N104G (antibody, V domains shown) VH: EVQLLESGGGLVQPGGSLRLSCAASGFTFSKYFMFWVRQAPGKGLEWVSVISPSGGMTRYADSVKGRFTISRDNSKNTLYLQMNSLRAEDTAVYYCARVGYGGGSDYWGQGTLVTVSS VL: DIQMTQSPSSVSASVGDRLTIICRASQDINRWLAWYQQTPGNAPKLLIHSATSLQSGVPSRFSGSGSGTDFTLTINSLQPEDFATYYCQQADSFPLTFGGGTKVEIK |  | 1.21 fold | 1.21 fold
C5A (XPA23) VH N104A (antibody, V domains shown) VH: EVQLLESGGGLVQPGGSLRLSCAASGFTFSKYFMFWVRQAPGKGLEWVSVISPSGGMTRYADSVKGRFTISRDNSKNTLYLQMNSLRAEDTAVYYCARVGYGGASDYWGQGTLVTVSS VL: DIQMTQSPSSVSASVGDRLTIICRASQDINRWLAWYQQTPGNAPKLLIHSATSLQSGVPSRFSGSGSGTDFTLTINSLQPEDFATYYCQQADSFPLTFGGGTKVEIK |  | 1.61 fold | 1.61 fold
C5A (XPA23) VH Y101V (antibody, V domains shown) VH: EVQLLESGGGLVQPGGSLRLSCAASGFTFSKYFMFWVRQAPGKGLEWVSVISPSGGMTRYADSVKGRFTISRDNSKNTLYLQMNSLRAEDTAVYYCARVGVGGNSDYWGQGTLVTVSS VL: DIQMTQSPSSVSASVGDRLTIICRASQDINRWLAWYQQTPGNAPKLLIHSATSLQSGVPSRFSGSGSGTDFTLTINSLQPEDFATYYCQQADSFPLTFGGGTKVEIK |  | 0.09 fold | 0.09 fold
C5A (XPA23) VH S105G (antibody, V domains shown) VH: EVQLLESGGGLVQPGGSLRLSCAASGFTFSKYFMFWVRQAPGKGLEWVSVISPSGGMTRYADSVKGRFTISRDNSKNTLYLQMNSLRAEDTAVYYCARVGYGGNGDYWGQGTLVTVSS VL: DIQMTQSPSSVSASVGDRLTIICRASQDINRWLAWYQQTPGNAPKLLIHSATSLQSGVPSRFSGSGSGTDFTLTINSLQPEDFATYYCQQADSFPLTFGGGTKVEIK |  | 0.12 fold | 0.12 fold
C5A (XPA23) VH Y101A (antibody, V domains shown) VH: EVQLLESGGGLVQPGGSLRLSCAASGFTFSKYFMFWVRQAPGKGLEWVSVISPSGGMTRYADSVKGRFTISRDNSKNTLYLQMNSLRAEDTAVYYCARVGAGGNSDYWGQGTLVTVSS VL: DIQMTQSPSSVSASVGDRLTIICRASQDINRWLAWYQQTPGNAPKLLIHSATSLQSGVPSRFSGSGSGTDFTLTINSLQPEDFATYYCQQADSFPLTFGGGTKVEIK |  | 0.04 fold | 0.04 fold
C5A (XPA23) VH Y101L (antibody, V domains shown) VH: EVQLLESGGGLVQPGGSLRLSCAASGFTFSKYFMFWVRQAPGKGLEWVSVISPSGGMTRYADSVKGRFTISRDNSKNTLYLQMNSLRAEDTAVYYCARVGLGGNSDYWGQGTLVTVSS VL: DIQMTQSPSSVSASVGDRLTIICRASQDINRWLAWYQQTPGNAPKLLIHSATSLQSGVPSRFSGSGSGTDFTLTINSLQPEDFATYYCQQADSFPLTFGGGTKVEIK |  | 1.91 fold | 1.91 fold
C5A (XPA23) VH S105P (antibody, V domains shown) VH: EVQLLESGGGLVQPGGSLRLSCAASGFTFSKYFMFWVRQAPGKGLEWVSVISPSGGMTRYADSVKGRFTISRDNSKNTLYLQMNSLRAEDTAVYYCARVGYGGNPDYWGQGTLVTVSS VL: DIQMTQSPSSVSASVGDRLTIICRASQDINRWLAWYQQTPGNAPKLLIHSATSLQSGVPSRFSGSGSGTDFTLTINSLQPEDFATYYCQQADSFPLTFGGGTKVEIK |  | 1.41 fold | 1.41 fold
C5A (XPA23) VH N104V (antibody, V domains shown) VH: EVQLLESGGGLVQPGGSLRLSCAASGFTFSKYFMFWVRQAPGKGLEWVSVISPSGGMTRYADSVKGRFTISRDNSKNTLYLQMNSLRAEDTAVYYCARVGYGGVSDYWGQGTLVTVSS VL: DIQMTQSPSSVSASVGDRLTIICRASQDINRWLAWYQQTPGNAPKLLIHSATSLQSGVPSRFSGSGSGTDFTLTINSLQPEDFATYYCQQADSFPLTFGGGTKVEIK |  | 1.27 fold | 1.27 fold
